This is an account of results in patent US20220372154A1 (APEXIGEN, published 2022).

In test [1] the target is T1, human TNFR2 expressed on cells (human, UniProt P20333 23-461).
T1 construct: whole, on cells; also called hTNFR2 (cell); CHO-TNFR2
T1 sequence (looked up): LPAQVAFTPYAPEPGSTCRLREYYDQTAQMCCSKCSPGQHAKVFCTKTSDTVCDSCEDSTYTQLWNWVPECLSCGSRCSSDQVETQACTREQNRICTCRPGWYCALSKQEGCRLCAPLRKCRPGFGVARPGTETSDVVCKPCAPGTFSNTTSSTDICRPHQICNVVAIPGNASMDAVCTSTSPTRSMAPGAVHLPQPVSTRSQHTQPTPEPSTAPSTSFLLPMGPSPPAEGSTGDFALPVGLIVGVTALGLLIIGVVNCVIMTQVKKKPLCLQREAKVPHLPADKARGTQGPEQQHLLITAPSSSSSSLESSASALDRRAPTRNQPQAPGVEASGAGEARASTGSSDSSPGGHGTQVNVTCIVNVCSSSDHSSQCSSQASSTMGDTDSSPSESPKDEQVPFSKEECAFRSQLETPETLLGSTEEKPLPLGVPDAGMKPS
In words: flow cytometry, cell-expressed human TNFR2. For orientation: Flow cytometry measures light scatter and fluorescence of single cells or particles in a stream.

In test [2] the target is T2, TNFR-Fc (UniProt P20333 23-257, limits assumed).
T2 construct: Printed only as TNFR-Fc; not shown: Fc part
T2 sequence (looked up): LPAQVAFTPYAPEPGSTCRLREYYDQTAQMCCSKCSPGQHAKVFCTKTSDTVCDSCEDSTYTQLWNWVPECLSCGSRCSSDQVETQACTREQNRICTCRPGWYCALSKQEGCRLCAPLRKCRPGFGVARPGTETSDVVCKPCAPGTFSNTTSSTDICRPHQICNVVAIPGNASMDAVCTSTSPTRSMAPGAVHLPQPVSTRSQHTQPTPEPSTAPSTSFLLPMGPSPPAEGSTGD
Kind of test: TNF-α blocking ELISA (soluble). (An ELISA detects its analyte on a solid surface through an enzyme-linked reagent.)

In test [3] the target is T3, human TNFR1-His tagged protein (human, UniProt P19438 30-211, limits assumed).
T3 construct: also called soluble human TNFR1; not shown: His tag
T3 sequence (looked up): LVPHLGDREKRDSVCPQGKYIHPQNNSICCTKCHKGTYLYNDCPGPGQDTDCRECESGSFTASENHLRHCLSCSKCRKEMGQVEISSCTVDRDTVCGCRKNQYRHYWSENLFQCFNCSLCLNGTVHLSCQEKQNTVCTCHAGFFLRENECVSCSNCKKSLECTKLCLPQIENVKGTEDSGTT
In words: ELISA on coated TNFR1-His (1 ug/mL), OD 450 nm. As for the experimental part: TNFR1-His tagged protein was coated on ELISA plates at 1 μg/mL at 4° C. overnight. Plates were washed, blocked, and antibodies were added at indicated concentrations for 1 hour at RT. Antibodies were washed and detected with anti-human IgG HRP for 1 hour. Assay was developed using TMB substrate for 10 minutes.

The target of test [4] is T4, cynomolgus TNFR2-His tagged protein (cynomolgus, UniProt A0A2K5VET2 132-366).
T4 construct: also called Cyno TNFR2; cynomolgus TNFR2 protein; not shown: His tag
T4 sequence: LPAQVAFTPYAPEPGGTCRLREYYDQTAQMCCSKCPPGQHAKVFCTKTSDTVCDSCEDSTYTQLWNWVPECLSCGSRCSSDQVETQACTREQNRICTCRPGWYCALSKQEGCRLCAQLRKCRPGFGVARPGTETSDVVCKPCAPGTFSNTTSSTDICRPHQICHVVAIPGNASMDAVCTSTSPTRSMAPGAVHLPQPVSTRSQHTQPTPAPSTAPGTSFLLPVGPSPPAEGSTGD
In words: ELISA, cynomolgus TNFR2.

In test [5] the target is T1, human TNFR2 expressed on cells. Kind of test: blocking of biotinylated TNF-α on TNFR2-CHO cells, flow cytometry. As for the experimental part: TNFR2-overexpressing CHO cells were plated at 100,000 cells per well. Cells were incubated with the indicated antibodies for 30 minutes on ice. […] Cells were analyzed using Cytoflex or MACSQuant flow cytometer. Assay was repeated twice.

For test [6] the target is unchanged. Kind of test: cell binding on TNFR2-overexpressing (OE) cells.
For test [7], the target named is T5, human TNFR2-His tagged protein (soluble) (human, UniProt P20333 23-257).
T5 construct: also called hTNFR2 (soluble); soluble TNFR2-His; not shown: His tag
T5 sequence (looked up): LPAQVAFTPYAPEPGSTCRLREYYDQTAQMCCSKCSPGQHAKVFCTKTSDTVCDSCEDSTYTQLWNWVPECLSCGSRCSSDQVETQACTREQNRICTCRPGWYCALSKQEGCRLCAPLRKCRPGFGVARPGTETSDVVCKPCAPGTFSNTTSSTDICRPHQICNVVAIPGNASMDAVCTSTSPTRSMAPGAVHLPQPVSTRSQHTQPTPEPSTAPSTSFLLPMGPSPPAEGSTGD
In words: ELISA, soluble human TNFR2.

For test [8], the target named is T6, TNFR2 PLAD or CRD1 peptide (aa 17-54 of mature TNFR2) (human).
T6 construct: Range counted on mature TNFR2
T6 peptide: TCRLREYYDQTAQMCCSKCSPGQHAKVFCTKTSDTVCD
Kind of test: peptide-binding ELISA (potential peptide bin).

The target of test [9] is T4, cynomolgus TNFR2-His tagged protein. Kind of test: ELISA on coated cynomolgus TNFR2-His. The method in brief: (§1)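 TNFR2-His ELISAs: human or cynomolgus protein coated at 1 μg/mL overnight at 4 °C, BSA-blocked, antibodies 1 h RT, anti-human HRP, TMB 3–5 min. Flow: 200,000 human TNFR2-CHO cells, antibody 1 h, anti-human IgG BV421 20 min. Blocking ELISA: TNFR-Fc coated 1 ug/mL, antibodies 1 h RT, TMB 5–7 min.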

The target in test [10] is T1, human TNFR2 expressed on cells. Kind of test: flow cytometry on CHO cells expressing human TNFR2. In short, it runs like this: as §1
Test [11] deals with T2, TNFR-Fc. In words: TNF-α blocking ELISA on coated TNFR-Fc. The method in brief: as §1
In test [12] the target is T5, human TNFR2-His tagged protein (soluble). In words: ELISA on coated human TNFR2-His. The method in brief:
as §1

Test [13] concerns the target T7, soluble mouse TNFR2 (mouse, UniProt P25119 23-258, limits assumed).
T7 sequence (looked up): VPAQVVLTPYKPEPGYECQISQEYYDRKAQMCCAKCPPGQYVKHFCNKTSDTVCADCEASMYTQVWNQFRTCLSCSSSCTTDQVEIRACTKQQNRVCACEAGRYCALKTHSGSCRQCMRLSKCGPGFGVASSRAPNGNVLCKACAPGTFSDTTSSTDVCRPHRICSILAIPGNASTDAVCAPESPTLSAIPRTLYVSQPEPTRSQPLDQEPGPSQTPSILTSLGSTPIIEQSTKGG
Kind of test: binding screen on soluble mouse TNFR2 (mouse cross-reactivity).

B1: humanized antibody h600_HB_11D7.1 (antibody, V domains shown)
VH: EVQLVESGGGLVQPGGSLRLSCAASGFDFSRYYMSWVRQAPGKGLEWVGYIDPIFGNTYYASWVNGRFTISSDNAKNSLYLQMNSLRAEDTAVYYCARDGDAGYDGYGYGTDLWGQGTLVTVSS
VL: DIQMTQSPSSLSASVGDRVTITCQASENIYSGLAWYQQKPGKVPKLLIVSAFTLASGVPSRFSGSGSGTDFTLTISSLQPEDVATYYCQTYYYGSVTYFNAFGGGTKVEIK
B1: the EC50 in [1] was found to be 0.239 nM; in test [4] it was 0.054 nM; in test [7] it was 0.091 nM. For the same molecule, the IC50 was determined as 2.96 nM in test [2] and 0.323 nM in test [5]. Besides, the binding result in test [3] is given as “binds”. Besides, the Kd in test [6] was determined as 0.201 nM.

B2: chimeric antibody clone 6 (rab600_23_6) (antibody, V domains shown)
VH: QEQLKESGGRLVTPGTPLTLTCTASGFSLSSYYVSWVRQAPGKGLEWIGIIHSDGSIYYATWAKGLFTISRTSTTVDLKATSLTTEDTATYFCVRGYPGYYTSTFNRLDLWGQGTLVTVSS
VL: AYDMTQTPASVEVAVGGTVTIKCQASQTISNELSWYQQKSGQPPKLLIYRASTLASGVPSRFSGSGSGTEFTLTISGVECDDAATYYCQQGYTTNNVDNLFGGGTEVVVK
On to B2, for which the binding result in test [8] is “binds”; in test [13] it was “no binding”. Further, the EC50 in [9] is 0.104 nM; in test [10], 0.277 nM; in [12] it was 0.147 nM. In addition, half-maximal inhibition in [11] (IC50) required 5.63 nM.

B3: chimeric antibody clone 81 (rab600_23_81) (antibody, V domains shown)
VH: QSLEESGGRLVTPGTPLTLTCTASGFSLSNYYVSWVRQAPGKGLEWIGIIETGGNLYYASWAKGRFSLSKTSTTVDLKITSPTAEDTATYFCVRGYPGYYTHTFNRLDLWGQGTLVTVSS
VL: AYDMTQTPASVEVAVGGTVTIKCQASESIANELSWYQRKSGQPPKLLIYRASTLASGVPSRFKGSGSGTQFTLTISGVECDDAATYYCQQGYTTINIDNLFGGGTEVVVK
In the case of B3, the binding result was “binds” in test [8] and “no binding” in test [13]. The 50% effective concentration (EC50) in [9] was determined as 4.04 nM; in [10], 9.44 nM; in [12], 7.39 nM.

B4: humanized antibody clone 25-31 (h600_24_31) (antibody, V domains shown)
VH: EVQLVESGGGLVQPGGSLRLSCAASGFSLSSYDMSWVRQAPGKGLEWVGYIWSSGSAYYATWAEGRFTISRDNSKNTLYLQMNSLRAEDTAVYYCARRYVGSSYDTWGQGTLVTVSS
VL: DIQMTQSPSSLSASVGDRVTITCQSSQSVSSNNYLSWYQQKPGKAPKLLIYAASYLASGVPSRFSGSGSGTDFTLTISSLQPEDFATYYCLGDYDNDIDHAFGGGTKVEIK
notes: its heavy-chain CDRs are those of rab600_25_31
As for B4, the EC50 stood at 12.1 nM in test [1], 1.86 nM in test [4] and 0.72 nM in [7]. The binding result in [3] is “binds”. In test [6], this molecule showed a Kd of 12.1 nM.

Usually EC50 stands for the concentration at which the effect is half-maximal. A lower EC50 goes with higher potency in that assay. Usually IC50 stands for the concentration at which inhibition is half-maximal. A higher IC50 goes with a need for much substance. As usually defined, the Kd is the constant that tells how readily two partners part at equilibrium. The low end stands for tighter binding, the high end for weaker binding.
